According to patent US20200317776A1 (published 2020):
Positions count from the first letter of the chain named.

B1: AL2p-21 (antibody, V domains shown)
VH: QVQLVQSGAEVKKPGSSVKVSCKASGYAFSSHWMNWVRQAPGQGLEWMGRIYPGDGDTNYAWKFQGRVTITADESTSTAYMELSSLRSEDTAVYYCARLLRNQPGESYAMDYWGQGTLVTVSS
VL: GVVMTQTPLSLSVTPGQPASISCRSSSSLVHSNGYTYLHWYLQKPGQSPQLLIYKVSNRKSGVPDRFSGSGSGTDFTLKISRVEAEDVGVYYCSQSTRVPYTFGQGTKLEIK
notes: Fab and IgG formats under one id
B2: AL2p-27 (antibody, V domains shown)
VH: B1 VH with D55Q, W62Q
VL: B1 VL with S27R, K60V
notes: as for B1
B3: AL2p-25 (antibody, V domains shown)
VH: B1 VH with D55G, W62Q, Q65R
VL: B1 VL with S25T, S27Q, K60V
notes: as for B1
B4: AL2p-33 (antibody, V domains shown)
VH: B1 VH with Q1E, H32S, W62Q
VL: B1 VL with T5A, S25T, S27Q, K60V
notes: as for B1
B5: AL2p-24 (antibody, V domains shown)
VH: B1 VH with D55G, W62Q
VL: B1 VL with S27R, K60F
notes: as for B1
B6: AL2p-30 (antibody, V domains shown)
VH: B1 VH with H32Q
VL: B1 VL
notes: as for B1
B7: AL2p-28 (antibody, V domains shown)
VH: B1 VH with D55V, W62Q
VL: B1 VL with S25T, S27Q, K60V
notes: as for B1
B8: AL2p-22 (antibody, V domains shown)
VH: B1 VH with W62Y
VL: B1 VL with S27R, K60R
notes: as for B1
B9: AL2p-32 (antibody, V domains shown)
VH: B1 VH with H32E, W62Q
VL: B1 VL with S27Q, K60R
notes: as for B1
B10: AL2p-43 (antibody, V domains shown)
VH: B1 VH with D55G, W62R, Q65R, E106A
VL: B1 VL with S27R, G34R, K60R
notes: as for B1

Each binder was assayed against T1, human TREM2 Fc fusion (entire TREM2 ECD; only one Fc arm fused to TREM2) (human, UniProt Q9NZC2 19-174) (assay: BLI, IgG, avid).
T1 construct: also called huTREM2-Fc; recombinant hTREM2
T1 sequence: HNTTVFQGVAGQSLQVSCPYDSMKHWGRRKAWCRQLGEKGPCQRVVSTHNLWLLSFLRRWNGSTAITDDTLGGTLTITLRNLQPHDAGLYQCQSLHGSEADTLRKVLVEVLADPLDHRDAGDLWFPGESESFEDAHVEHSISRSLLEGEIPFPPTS
Procedure: Briefly, IgGs were loaded on-line onto AHQ sensors, Sensors were equilibrated off-line in assay buffer for 30 minutes and then monitored on-line for 60 seconds for baseline establishment. For avid binding measurement, sensors with loaded IgGs were exposed to 100 nM antigen (human or cynomolgus monkey TREM2 Fe fusion using the entire TREM2 ECD; only one Fc arm was fused to TREM2) for 3 minutes, afterwards they were transferred to assay buffer for 3 minutes for off-rate measurement. Monovalent binding measurements were obtained by loading human TREM2 Fc fusion antigens to AHQ sensor and followed by exposure to 100 nM TREM2 antibody Fab. Kinetics data were fit using a 1:1 binding model in the data analysis software provided by ForteBio. Assay was run at room temperature (25° C.).
Binder B1 has a Kd of 0.399 nM.
B2 showed a Kd of 0.274 nM.
Work on B3 yielded a Kd of 0.22 nM.
For B4, the Kd was 0.889 nM.
In the case of B5, the Kd is reported as 0.233 nM.
B6 was tested, and the Kd was 0.377 nM.
With B7 the Kd was 0.417 nM.
B8 showed a Kd of 0.219 nM.
Binder B9 has a Kd of 1.12 nM.

What follows are binders tested against T2, human TREM2/DAP12 fusion protein (human, UniProt O43914 41-113, limits assumed) (assay: cell-based or functional assay).
For B1, the “Luciferase activation plate bound 33 nM IgG, FOC” value was 13.1 FOC and the “Luciferase activation soluble 10 nM IgG, FOC” value was 1.83 FOC.
For B2, the “Luciferase activation plate bound 33 nM IgG, FOC” value was 24.4 FOC and the “Luciferase activation soluble 10 nM IgG, FOC” value was 2.06 FOC.
B3 was tested, and the “Luciferase activation plate bound 33 nM IgG, FOC” value was 22.3 FOC and the “Luciferase activation soluble 10 nM IgG, FOC” value was 2.35 FOC.
In the case of B4, the “Luciferase activation plate bound 33 nM IgG, FOC” value is reported as 3.21 FOC and the “Luciferase activation soluble 10 nM IgG, FOC” value is reported as 1.72 FOC.
In the case of B5, the “Luciferase activation plate bound 33 nM IgG, FOC” value is reported as 24.1 FOC and the “Luciferase activation soluble 10 nM IgG, FOC” value is reported as 2.12 FOC.
B6 was tested, and the “Luciferase activation plate bound 33 nM IgG, FOC” value was 15.8 FOC and the “Luciferase activation soluble 10 nM IgG, FOC” value was 2.31 FOC.
With B7 the “Luciferase activation plate bound 33 nM IgG, FOC” value was 9.27 FOC and the “Luciferase activation soluble 10 nM IgG, FOC” value was 2.14 FOC.
In the case of B8, the “Luciferase activation plate bound 33 nM IgG, FOC” value is reported as 24.9 FOC and the “Luciferase activation soluble 10 nM IgG, FOC” value is reported as 1.75 FOC.
In the case of B9, the “Luciferase activation plate bound 33 nM IgG, FOC” value is reported as 4.9 FOC and the “Luciferase activation soluble 10 nM IgG, FOC” value is reported as 1.47 FOC.

Biological target: T3, cynomolgus monkey TREM2 Fc fusion (entire TREM2 ECD; only one Fc arm fused to TREM2) (cynomolgus monkey, UniProt Q9NZC2 19-174 (human entry))
T3 construct: also called cyno TREM2-Fc
T3 chain: T1 sequence with A10E, W60R, L89F, F125V
Assay: BLI, Fab, monovalent
With B1 the Kd was 3.84 nM.
B10 gave a Kd of 0.36 nM.
B2 gave a Kd of 1.82 nM.
Binder B3 has a Kd of 1.76 nM.
In the case of B4, the Kd is reported as 0.884 nM.
With B5 the Kd was 1.63 nM.
Binder B6 has a Kd of 5.66 nM.
With B7 the Kd was 7.91 nM.
Work on B8 yielded a Kd of 1.28 nM.
In the case of B9, the Kd is reported as 34.8 nM.

What follows are binders tested against T1, human TREM2 Fc fusion (entire TREM2 …) (assay: BLI, Fab, monovalent).
In the case of B1, the Kd is reported as 4.15 nM.
For B10, the Kd was 0.493 nM.
B2 gave a Kd of 1.99 nM.
B3 gave a Kd of 2.34 nM.
B4 was tested, and the Kd was 10.3 nM.
B5 showed a Kd of 2.1 nM.
B6 gave a Kd of 6.5 nM.
B7 showed a Kd of 7.6 nM.
B8 was tested, and the Kd was 1.58 nM.
In the case of B9, the Kd is reported as 36 nM.

Each binder was assayed against T4, human TREM2 expressed on cells (human, UniProt Q9NZC2 19-230) (assay: FACS, human DCs).
T4 construct: BW5147.G.1.4 cells stably expressing human TREM2 together with Dap12, or endogenous TREM2 of primary human myeloid cells; also called huT2 BW; hTREM2 expressing cell line
T4 sequence: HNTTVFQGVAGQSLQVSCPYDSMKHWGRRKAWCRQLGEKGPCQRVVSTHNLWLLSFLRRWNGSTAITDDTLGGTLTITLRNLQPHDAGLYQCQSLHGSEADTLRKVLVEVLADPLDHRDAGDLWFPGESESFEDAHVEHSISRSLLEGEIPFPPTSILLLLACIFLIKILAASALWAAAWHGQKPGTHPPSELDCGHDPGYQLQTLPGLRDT
Source text: (§1) To examine cell binding of affinity matured anti-TREM2 antibodies, both primary human monocyte derived dendritic cells and recombinant, human TREM2 expressing cells were utilized. For the latter, BW5147.G.1.4 (ATCC® TIB48™) and HEK293T cells stably expressing human TREM2 together with Dap12 using viral infection were established. For primary human monocyte derived dendritic cells, human monocytes were isolated from whole blood using RosetteSep Human monocyte enrichment cocktail (Stemcell technologies) and Ficoll centrifugation per manufacturer protocols. After lysing red blood cells with ACK lysing buffer, monocytes were resuspended in complete media (RPMI, 10% FBS, Pen/Strep, L-glutamine, HEPES, non-essential amino acid, Sodium pyruvate) with 100 ng/ml human GM-CSF (hu-GMCSF) and, human IL-4 (hu-IL-4) to differentiate dendritic cells for 6 days.
(§2) Cells were harvested by trypsinization (Hek293T) or scraping (BW and dendritic cells), washed in PBS, counted and plated on 96-well U bottom plates at […] cells/well. The plates were spun at 1,400 rpm for 3 minutes and primary TREM2 or control antibodies were added in FACS buffer (PBS+2% FBS) and incubated on ice for one hour. Cells were subsequently centrifuged as before and washed thrice with FACS buffer. Cells were then incubated with anti-human PE conjugated secondary antibody (BD Biosciences) in FACS buffer for 30 minutes on ice. Cells were again washed thrice with FACS buffer and analyzed on a BD FACS Canto or an Intellicyt Flow Cytometer. Binding was measured as mean fluorescence intensity in the APC channel.
In the case of B10, the MFI is reported as 1040 MFI.

Biological target: T2, human TREM2/DAP12 fusion protein
Assay: cell-based or functional assay
Remark: another data set of the same source
In the case of B10, the “BW Luc assay plate bound 7.3 nM IgG, FOC” value is reported as 5.41 FOC and the “BW Luc assay soluble 7.3 nM IgG, FOC” value is reported as 8.84 FOC.

The binders below were run against T4, human TREM2 expressed on cells (assay: FACS, hTREM2 BW cells).
Source text: as §1, §2
For B1, the Kd was 1.5 nM.
In the case of B10, the Kd is reported as 5.01 nM.
Work on B2 yielded a Kd of 1.5 nM.
Work on B3 yielded a Kd of 1.7 nM.
For B4, the Kd was 4.5 nM.
B5 gave a Kd of 1.7 nM.
B6 gave a Kd of 1.2 nM.
Binder B7 has a Kd of 2.2 nM.
With B8 the Kd was 1.5 nM.
Work on B9 yielded a Kd of 2.8 nM.
